Test results taken from patent US5405946A, “Recombinant protein S variants deficient in C4BP binding activity, compositions and therapeutic methods” (The Scripps Research Institute, priority 1992, dated 1995).
“Also recorded” adds a separate entry of the source. Values belong to the molecule of their own block, whether it stands above or below them.

Legend:
C4BP = target: T1, C4BP (Homo sapiens, UniProt P20851); conditions: PS association with C4BP in plasma; read-out: dissociation constant; cited from earlier work
T1 sequence (P20851 18-252): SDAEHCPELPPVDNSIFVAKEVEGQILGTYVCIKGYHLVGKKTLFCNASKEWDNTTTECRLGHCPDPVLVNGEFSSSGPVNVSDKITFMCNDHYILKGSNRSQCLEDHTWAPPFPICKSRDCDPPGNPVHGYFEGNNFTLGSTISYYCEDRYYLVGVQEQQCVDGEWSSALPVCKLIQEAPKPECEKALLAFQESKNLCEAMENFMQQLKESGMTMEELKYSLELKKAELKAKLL
T1 sequence (P04003 49-597 partner): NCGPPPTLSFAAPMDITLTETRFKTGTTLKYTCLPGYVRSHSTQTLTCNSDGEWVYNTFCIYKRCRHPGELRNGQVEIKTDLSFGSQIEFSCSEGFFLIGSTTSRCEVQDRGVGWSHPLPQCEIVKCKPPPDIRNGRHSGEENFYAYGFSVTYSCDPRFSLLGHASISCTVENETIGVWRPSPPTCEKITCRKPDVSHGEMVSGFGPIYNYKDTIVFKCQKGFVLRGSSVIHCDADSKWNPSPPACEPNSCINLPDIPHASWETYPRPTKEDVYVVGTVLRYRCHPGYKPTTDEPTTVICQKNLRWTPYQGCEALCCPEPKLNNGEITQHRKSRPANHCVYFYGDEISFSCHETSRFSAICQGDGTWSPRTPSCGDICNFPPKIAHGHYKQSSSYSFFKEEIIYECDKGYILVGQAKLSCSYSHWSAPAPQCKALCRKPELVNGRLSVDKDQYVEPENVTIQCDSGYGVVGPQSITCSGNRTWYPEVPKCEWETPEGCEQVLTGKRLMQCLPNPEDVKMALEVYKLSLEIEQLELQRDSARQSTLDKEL

[1] = target: T2, human C4b-binding protein (C4BP) (Homo sapiens, UniProt P20851); test: ELISA of complex formation between recombinant PS variant proteins and C4BP; conditions: C4BP 1 ug/ml, 18 hours room temperature
T2 sequence (P20851 18-252): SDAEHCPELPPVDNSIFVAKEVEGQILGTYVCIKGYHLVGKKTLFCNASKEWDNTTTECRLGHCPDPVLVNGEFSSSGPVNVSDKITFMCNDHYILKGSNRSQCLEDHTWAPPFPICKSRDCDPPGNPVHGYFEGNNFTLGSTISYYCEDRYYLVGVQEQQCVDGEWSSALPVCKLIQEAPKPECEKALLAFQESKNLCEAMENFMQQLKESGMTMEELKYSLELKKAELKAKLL
T2 sequence (P04003 49-597 partner): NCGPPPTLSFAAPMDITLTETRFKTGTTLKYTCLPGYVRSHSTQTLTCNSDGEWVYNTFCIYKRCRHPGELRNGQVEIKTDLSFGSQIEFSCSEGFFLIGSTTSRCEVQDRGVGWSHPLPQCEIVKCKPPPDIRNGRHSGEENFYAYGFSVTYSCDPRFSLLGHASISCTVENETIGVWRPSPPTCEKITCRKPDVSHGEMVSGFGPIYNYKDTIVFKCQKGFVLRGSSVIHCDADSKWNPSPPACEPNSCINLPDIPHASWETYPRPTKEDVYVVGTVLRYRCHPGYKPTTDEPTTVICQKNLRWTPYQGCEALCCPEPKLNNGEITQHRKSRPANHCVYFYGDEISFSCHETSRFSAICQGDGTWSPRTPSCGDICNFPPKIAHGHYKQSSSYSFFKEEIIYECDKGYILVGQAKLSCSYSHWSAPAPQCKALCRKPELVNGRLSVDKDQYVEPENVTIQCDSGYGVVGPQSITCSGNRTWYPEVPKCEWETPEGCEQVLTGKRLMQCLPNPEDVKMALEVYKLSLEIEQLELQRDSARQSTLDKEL
Protocol: The complex formation between the recombinant PS variant proteins and C4BP was measured with a sensitive ELISA using C4BP and a peroxidase conjugated anti-PS antibody as described by Chang et al., Thromb. Haemost., 67:526-532 (1992). Briefly, IgG at a concentration of 10 ug/ml from monoclonal antibody 8C11, which is directed against the alpha chain of C4BP (Hessing et al., J. Immunol., 144:204-208 (1990)), was coated in 50 mM NaHCO3 at pH 9.6 overnight at 4C. onto polyvinyl microtiter plates (Costar, Cambridge, Mass.). After washing to remove the unbound IgGs, the wells were blocked with 1% (w/v) BSA in 50 mM Tris-HCl at pH 7.5 containing 150 mM NaCl and 5 mM CaCl2 for 1 hour at room temperature. C4BP, prepared as described by Hessing et al., supra, was allowed to bind for 2 hours with a final concentration of 1 ug/ml. Increasing amounts of recombinant PS proteins (E424K, Q427E, K429E, […] and K432E) and wild-type recombinant PS prepared in Example 1 were then added in concentrations ranging from 0-150 ng/ml and maintained for 18 hours at room temperature. Bound proteins were allowed to bind to rabbit anti-human PS IgG conjugated to peroxidase (Dakopatts, Glostrup, Denmark) at a concentration of 0.3 ug/ml for 2 hours at room temperature. After washing the wells to remove the unbound proteins, 100 ul of 0.1M sodium phosphate/0.2M sodium citrate at pH 5.0 containing 0.04% 1,2-phenylenediamine dihydrochloride and 0.015% hydrogen peroxide was added. The hydrolysis of phenylenediamine was stopped by adding 50 ul 2N sulfuric acid. The absorbance was measured at 490 nm using a Vmax plate reader (Molecular Devices Corp., Menlo Park, Calif.). The data represented the mean of duplicate determinations.
The binding of the of the thrombin domain recombinant PS variants to C4BP was determined. The complex formation between the recombinant proteins and C4BP was measured with a sensitive ELISA using anti-C4BP monoclonal antibody 8C11 lgG, purified C4BP and peroxidase conjugated anti-PS antibody as described in Example 2A.
Anti-C4BP monoclonal antibody 8C11 IgG was coated onto microtiter wells to catch C4BP (1 ug/ml). Increasing amounts (0-100 ng/ml) of recombinant PS or variants (R49L, R60L, R70I, R49L/R60L, R60L/R70I, R49L/R70I and R49L/R60L/R70I) were added. Binding to C4BP was for 18 hours at room temperature. Bound PS variants were detected with anti-PS IgG conjugated to peroxidase (0.3 ug/ml). The results are the mean of duplicate values in two different experiments.

[2] = target: activated protein C (APC) (Homo sapiens, UniProt P04070); test: Activated partial thromboplastin time clotting assay, APC cofactor activity in PS- and C4BP-depleted plasma; format: biochemical
Protocol: (§1) An activated partial thromboplastin time clotting assay, using PS- and C4BP-depleted plasma, cephalin-kaolin reagent (Boehringer Mannhein, Indianapolis, Ind.), activated protein C (APC) and increasing amounts of recombinant PS variants was performed as described by Chang et al., Thromb. Haemost., 67:526-532 (1992). Briefly, to 50 ul PS and C4BP-depleted plasma (prepared as described by Koedam et al., J. Clin. Invest., 82:1236-1243 (1988)) was added 50 ul cephalin-kaolin reagent, 25 ul APC (Koedam et al., ibid) at 5 ug/ml and 15 to 45 ul recombinant PS variants (0-4 ug/ml) diluted in Michaelis buffer (28.5 mM sodium acetate, 28.5 mM sodium barbital and 116 mM NaCl, pH 7.35) and maintained for 3 minutes at 37C. Clotting was initiated by addition of 50 ul of 25 mM CaCl2 and the clotting time was measured in an Amelung-Coagulometer KC10.
(§2) The ability of the variants to serve as a cofactor for APC was tested in a clotting assay. The clotting assay was performed as described in Example 2D. To examine the effects of thrombin on recombinant PS variants APC cofactor activity, one ml of purified recombinant PS variants listed above and prepared in Example 1D (4-40 ug/ml) was maintained with 1/20 vol (50 ul) of thrombin-Sepharose for 1 hour at 37C. in 50 mM Tris-HCl pH 7.5 containing […]. Thrombin-Sepharose was removed by centrifugation. Supernatants containing the thrombin-treated PS were stored at -20C. until used.
(§3) The PS-dependent prolongation of the clotting time was measured in an activated partial thromboplastin time system using PS and C4BP depleted plasma, APC and cephalin-kaolin reagent as described in Example 2D. Increasing amounts of recombinant PS or the triple variant treated without or with thrombin were added. Clotting was initiated by the addition of CaCl2 and the clotting time was measured. The results are presented as the means of duplicate values.

thrombin [3] = target: T3, thrombin (Homo sapiens, UniProt P00734); test: APC cofactor clotting assay after thrombin-Sepharose treatment of PS variants; format: biochemical
T3 construct: maintained with 1/20 vol (50 ul) of thrombin-Sepharose for 1 hour at 37C
Protocol: as §1, §2, §3

thrombin [4] = target: T3, thrombin; test: Reduced SDS-PAGE of PS variants with thrombin treatment; format: biochemical; conditions: reduced SDS gels
Protocol: The purity and integrity of the recombinant PS variants was established by SDS-PAGE on 12.5% gradient gels according to Laemmli, Nature, 227:680-685 (1970) using the Phast system (Pharmacia Biotechnology, Sweden). After electrophoresis, the proteins were stained with silver nitrate or transferred onto Immobilon membranes for subsequent detection by Western blot analysis using rabbit anti-PS IgG conjugated to peroxidase (3 ug/ml).
For the thrombin-sensitive PS variant proteins, on reduced SDS gels, purified recombinant PS and the single and double variants all migrated as a doublet. […] The upper band of the doublet for recombinant PS and the single and double variants all could be converted into the lower band by thrombin treatment.

[5] = tested on: anti-PS monoclonal antibody LJ-56; test: Sandwich assay of LJ-56 reactivity to recombinant PS variant proteins; format: binding; conditions: LJ-56 0-10 ug/ml
Protocol: Reactivity of LJ-56 to the recombinant PS variant proteins gave essentially the same results when a sandwich detecting assay was performed. In the sandwich assay, a fixed amount of recombinant PS variants produced in Example 1B1) (50 ng for E424K and 100 ng for wild type, Q427E and K429E) were added to wells previously coated with rabbit anti-PS IgG at 10 ug/ml in coating buffer and treated to block nonspecific binding sites as described above. Following a maintenance period for 18 hours at room temperature, the wells were washed with TBS and 100 ul of serial dilutions of anti-PS monoclonal antibody LJ-56 (0-10 ug/ml) was added and maintained for 2 hours at room temperature. Detection of the immunoreactant products was accomplished with rabbit anti-mouse IgG conjugated to peroxidase (1:1000). The hydrolysis of […] was measure at 490 nm using a Vmax plate reader as described in Example 2A.

activated protein C (APC), sequence (P04070 212-461 limits assumed): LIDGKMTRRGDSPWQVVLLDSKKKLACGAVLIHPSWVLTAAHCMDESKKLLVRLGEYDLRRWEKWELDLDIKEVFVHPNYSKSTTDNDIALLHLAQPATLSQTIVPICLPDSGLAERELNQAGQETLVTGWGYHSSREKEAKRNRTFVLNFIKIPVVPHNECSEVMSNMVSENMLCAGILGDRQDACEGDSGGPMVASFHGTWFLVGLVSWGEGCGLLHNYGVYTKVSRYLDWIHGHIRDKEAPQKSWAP
activated protein C (APC), sequence (P04070 43-197 limits assumed): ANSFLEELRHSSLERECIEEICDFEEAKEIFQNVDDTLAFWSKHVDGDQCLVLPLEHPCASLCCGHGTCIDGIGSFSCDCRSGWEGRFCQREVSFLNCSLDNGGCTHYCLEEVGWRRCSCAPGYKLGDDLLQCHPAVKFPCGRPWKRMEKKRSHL

Molecule: PS: vitamin K-dependent protein of 75,000 molecular weight with 635 amino acid residues
Kd (C4BP): 1 to 5 nM

binding to C4BP ([1]; thrombin domain variants, 0-100 ng/ml, in the presence of calcium): unaltered affinity for binding to C4BP
Clotting Time ([2]; concentration 1.19 ug/ml, without protein S 72 ± 2 seconds): 84 s
Clotting Time After Treatment (thrombin [3]; after thrombin treatment, concentration 1.19 ug/ml, without protein S 72 ± 2 seconds): 85 s
B1: R49L/R60L/R70I variant: recombinant protein S triple variant, arginines 49, 60 and 70 replaced by leucine or isoleucine (protein)
chain: ANSLLEETKQGNLERECIEELCNKEEAREVFENDPETDYFYPKYLVCLLSFQTGLFTAALQSTNAYPDLISCVNAIPDQCSPLPCNEDGYMSCKDGKASFTCTCKPGWQGEKCEFDINECKDPSNINGGCSQICDNTPGSYHCSCKNGFVMLSNKKDCKDVDECSLKPSICGTAVCKNIPGDFECECPEGYRYNLKSKSCEDIDECSENMCAQLCVNYPGGYTCYCDGKKGFKLAQDQKSCEVVSVCLPLNLDTKYELLYLAEQFAGVVLYLKFRLPEISRFSAEFDFRTYDSEGVILYAESIDHSAWLLIALRGGKIEVQLKNEHTSKITTGGDVINNGLWNMVSVEELEHSISIKIAKEAVMDINKPGPLFKPENGLLETKVYFAGFPRKVESELIKPINPRLDGCIRSWNLMKQGASGIKEIIQEKQNKHCLVTVEKGSYYPGSGIAQFHIDYNNVSSAEGWHVNVTLNIRPSTGTGVMLALVSGNNTVPFAVSLVDSTSEKSQDILLSVENTVIYRIQALSLCSDQQSHLEFRVNRNNLELSTPLKIETISHEDLQRQLAVLDKAMKAKVATYLGGLPDVPFSATPVNAFYNGCMEVNINGVQLDLDEAISKHNDIRAHSCPSVWKKTKNS
APC cofactor activity ([2]; not treated with thrombin): higher APC cofactor activity (as defined by prolongation of the clotting time) than recombinant PS; also recorded: retained full APC cofactor activity
APC cofactor activity after treatment with thrombin (thrombin [3]; thrombin-Sepharose 1 hour at 37C): retained its APC cofactor activity; also recorded: remained unchanged; also recorded: completely resistant to inactivation by thrombin
conversion of upper band into lower band by thrombin (thrombin [4]): not converted into a lower band, indicating that this triple variant was resistant to thrombin

Clotting Time ([2]; final conc. 1.8 ug/ml, basal clotting 80): 88 s
clotting time at maximal inhibition of clotting ([2]; increasing amounts of variant): approximately 95 seconds
B2: K429E variant: recombinant human protein S with glutamic acid in place of lysine at position 429 (protein)
chain: ANSLLEETKQGNLERECIEELCNKEEAREVFENDPETDYFYPKYLVCLRSFQTGLFTAARQSTNAYPDLRSCVNAIPDQCSPLPCNEDGYMSCKDGKASFTCTCKPGWQGEKCEFDINECKDPSNINGGCSQICDNTPGSYHCSCKNGFVMLSNKKDCKDVDECSLKPSICGTAVCKNIPGDFECECPEGYRYNLKSKSCEDIDECSENMCAQLCVNYPGGYTCYCDGKKGFKLAQDQKSCEVVSVCLPLNLDTKYELLYLAEQFAGVVLYLKFRLPEISRFSAEFDFRTYDSEGVILYAESIDHSAWLLIALRGGKIEVQLKNEHTSKITTGGDVINNGLWNMVSVEELEHSISIKIAKEAVMDINKPGPLFKPENGLLETKVYFAGFPRKVESELIKPINPRLDGCIRSWNLMKQGASGIKEIIQEEQNKHCLVTVEKGSYYPGSGIAQFHIDYNNVSSAEGWHVNVTLNIRPSTGTGVMLALVSGNNTVPFAVSLVDSTSEKSQDILLSVENTVIYRIQALSLCSDQQSHLEFRVNRNNLELSTPLKIETISHEDLQRQLAVLDKAMKAKVATYLGGLPDVPFSATPVNAFYNGCMEVNINGVQLDLDEAISKHNDIRAHSCPSVWKKTKNS
binding to C4BP ([1]; first disulfide loop variants, 0-150 ng/ml, calcium): failed to bind to C4BP at concentrations up to 50 ng/ml
anticoagulant activity ([2]; in comparison with the basal clotting time of 80 seconds): anticoagulant activity increased linearly with increasing volumes of variant PS
recognition by LJ-56 [5]: not recognized
